# Assay results reported in US20110118131A1 (published 2011).
# Residue numbers refer to the chain shown, from its start. Names may count otherwise.
# B1: XPA23 Fab, heavy chain S30N (Fab, V domains shown)
# VH: EVQLLESGGGLVQPGGSLRLSCAASGFTFNKYFMFWVRQAPGKGLEWVSVISPSGGMTRYADSVKGRFTISRDNSKNTLYLQMNSLRAEDTAVYYCARVGYGGNSDYWGQGTLVTVSS
# VL: DIQMTQSPSSVSASVGDRLTIICRASQDINRWLAWYQQTPGNAPKLLIHSATSLQSGVPSRFSGSGSGTDFTLTINSLQPEDFATYYCQQADSFPLTFGGGTKVEIK
# B2: XPA23 Fab, heavy chain S30Q (Fab, V domains shown)
# VH: B1 VH with N30Q
# VL: B1 VL
# B3: XPA23 Fab, heavy chain S105E (Fab, V domains shown)
# VH: B1 VH with N30S, S105E
# VL: B1 VL
# B4: XPA23 Fab, heavy chain S54K (Fab, V domains shown)
# VH: B1 VH with N30S, S54K
# VL: B1 VL
# B5: XPA23 Fab, heavy chain T28E (Fab, V domains shown)
# VH: B1 VH with T28E, N30S
# VL: B1 VL
# B6: XPA23 Fab, heavy chain T58K (Fab, V domains shown)
# VH: B1 VH with N30S, T58K
# VL: B1 VL
# B7: XPA23 Fab, heavy chain S105Y (Fab, V domains shown)
# VH: B1 VH with N30S, S105Y
# VL: B1 VL
# B8: XPA23 Fab, heavy chain S105N (Fab, V domains shown)
# VH: B1 VH with N30S, S105N
# VL: B1 VL
# B9: XPA23 Fab, heavy chain S30Y (Fab, V domains shown)
# VH: B1 VH with N30Y
# VL: B1 VL
# B10: XPA23 Fab, heavy chain S54R (Fab, V domains shown)
# VH: B1 VH with N30S, S54R
# VL: B1 VL
# B11: XPA23 Fab, heavy chain S52Y (Fab, V domains shown)
# VH: B1 VH with N30S, S52Y
# VL: B1 VL
# B12: XPA23 Fab, heavy chain S52N (Fab, V domains shown)
# VH: B1 VH with N30S, S52N
# VL: B1 VL
# B13: XPA23 Fab, heavy chain S54N (Fab, V domains shown)
# VH: B1 VH with N30S, S54N
# VL: B1 VL
# B14: XPA23 Fab, heavy chain S52W (Fab, V domains shown)
# VH: B1 VH with N30S, S52W
# VL: B1 VL
# B15: XPA23 Fab, heavy chain S54F (Fab, V domains shown)
# VH: B1 VH with N30S, S54F
# VL: B1 VL
# B16: XPA23 Fab, heavy chain T58Q (Fab, V domains shown)
# VH: B1 VH with N30S, T58Q
# VL: B1 VL
# B17: XPA23 Fab, heavy chain S54Q (Fab, V domains shown)
# VH: B1 VH with N30S, S54Q
# VL: B1 VL
# B18: XPA23 Fab, heavy chain S105W (Fab, V domains shown)
# VH: B1 VH with N30S, S105W
# VL: B1 VL
# B19: XPA23 Fab, heavy chain T28K (Fab, V domains shown)
# VH: B1 VH with T28K, N30S
# VL: B1 VL
# B20: XPA23 Fab, heavy chain S52H (Fab, V domains shown)
# VH: B1 VH with N30S, S52H
# VL: B1 VL
# B21: XPA23 Fab, heavy chain T58D (Fab, V domains shown)
# VH: B1 VH with N30S, T58D
# VL: B1 VL
# B22: XPA23 Fab, heavy chain S54D (Fab, V domains shown)
# VH: B1 VH with N30S, S54D
# VL: B1 VL
# B23: XPA23 Fab, heavy chain T28R (Fab, V domains shown)
# VH: B1 VH with T28R, N30S
# VL: B1 VL
# B24: XPA23 Fab, heavy chain S52F (Fab, V domains shown)
# VH: B1 VH with N30S, S52F
# VL: B1 VL
# B25: XPA23 Fab, heavy chain S54E (Fab, V domains shown)
# VH: B1 VH with N30S, S54E
# VL: B1 VL
# B26: XPA23 Fab, heavy chain S54Y (Fab, V domains shown)
# VH: B1 VH with N30S, S54Y
# VL: B1 VL
# B27: XPA23 Fab, heavy chain S105Q (Fab, V domains shown)
# VH: B1 VH with N30S, S105Q
# VL: B1 VL
# B28: XPA23 Fab, heavy chain T58H (Fab, V domains shown)
# VH: B1 VH with N30S, T58H
# VL: B1 VL
# B29: XPA23 Fab, heavy chain S52E (Fab, V domains shown)
# VH: B1 VH with N30S, S52E
# VL: B1 VL
# B30: XPA23 Fab, heavy chain S30W (Fab, V domains shown)
# VH: B1 VH with N30W
# VL: B1 VL
# B31: XPA23 Fab, heavy chain T28W (Fab, V domains shown)
# VH: B1 VH with T28W, N30S
# VL: B1 VL
# B32: XPA23 Fab, heavy chain S52K (Fab, V domains shown)
# VH: B1 VH with N30S, S52K
# VL: B1 VL
# B33: XPA23 Fab, heavy chain T58N (Fab, V domains shown)
# VH: B1 VH with N30S, T58N
# VL: B1 VL
# B34: XPA23 Fab, heavy chain S105H (Fab, V domains shown)
# VH: B1 VH with N30S, S105H
# VL: B1 VL
# B35: XPA23 Fab, heavy chain S52R (Fab, V domains shown)
# VH: B1 VH with N30S, S52R
# VL: B1 VL
# B36: XPA23 Fab, heavy chain S105R (Fab, V domains shown)
# VH: B1 VH with N30S, S105R
# VL: B1 VL
# B37: XPA23 Fab, heavy chain S52Q (Fab, V domains shown)
# VH: B1 VH with N30S, S52Q
# VL: B1 VL
# B38: XPA23 Fab, heavy chain S30R (Fab, V domains shown)
# VH: B1 VH with N30R
# VL: B1 VL
# B39: XPA23 Fab, heavy chain S52D (Fab, V domains shown)
# VH: B1 VH with N30S, S52D
# VL: B1 VL
# B40: XPA23 Fab, heavy chain T58E (Fab, V domains shown)
# VH: B1 VH with N30S, T58E
# VL: B1 VL
# B41: XPA23 Fab, heavy chain T58F (Fab, V domains shown)
# VH: B1 VH with N30S, T58F
# VL: B1 VL
# B42: XPA23 Fab, heavy chain T28G (Fab, V domains shown)
# VH: B1 VH with T28G, N30S
# VL: B1 VL
# B43: XPA23 Fab, heavy chain T28H (Fab, V domains shown)
# VH: B1 VH with T28H, N30S
# VL: B1 VL
# B44: XPA23 Fab, heavy chain S54W (Fab, V domains shown)
# VH: B1 VH with N30S, S54W
# VL: B1 VL
# B45: XPA23 Fab, heavy chain T28Q (Fab, V domains shown)
# VH: B1 VH with T28Q, N30S
# VL: B1 VL
# B46: XPA23 Fab, heavy chain S105F (Fab, V domains shown)
# VH: B1 VH with N30S, S105F
# VL: B1 VL
# Target: T1, IL-1beta (UniProt P01584 117-269)
# T1 construct: also called IL-1β
# Assay: Biacore
fold difference in affinity vs parental [fold],binding result,Binder
0.15,–,B1
–,no binding,B2
1.17,–,B3
1.53,–,B4
–,no binding,B5
–,no binding,B6
–,no binding,B7
0.85,–,B8
–,no binding,B9
1.43,–,B10
–,no binding,B11
–,no binding,B12
0.08,–,B13
–,no binding,B14
0.87,–,B15
–,no binding,B16
1.01,–,B17
–,no binding,B18
–,no binding,B19
–,no binding,B20
0.12,–,B21
0.12,–,B22
–,no binding,B23

fold difference in affinity vs parental [fold],binding result,Binder
–,no binding,B24
0.03,–,B25
0.99,–,B26
0.98,–,B27
0.98,–,B28
–,no binding,B29
0.77,–,B30
–,no binding,B31
–,no binding,B32
0.9,–,B33
0.05,–,B34
–,no binding,B35
–,no binding,B36
–,no binding,B37
0.1,–,B38
–,no binding,B39
–,no binding,B40
1.04,–,B41
–,no binding,B42
–,no binding,B43
1.07,–,B44
–,no binding,B45
1.25,–,B46
